Data reported in article PMC8828467, “Activation mechanism of PINK1” (Nature, 2021).
Substitutions are numbered along the chain they refer to. In names and notes the source's numbering stands.

B1: PhPINK1 (amino acids 143–575) (domain or fragment, Pediculus humanus corporis, UniProt E0W1I1 143-575, looked up)
chain: SESENVEQLQAANLDELDLGEPIAKGCNAVVYSAKLKNVQSNKLAHQLAVKMMFNYDVESNSTAILKAMYRETVPAMSYFFNQNLFNIENISDFKIRLPPHPNIVRMYSVFADRIPDLQCNKQLYPEALPPRINPEGSGRNMSLFLVMKRYDCTLKEYLRDKTPNMRSSILLLSQLLEAVAHMNIHNISHRDLKSDNILVDLSEGDAYPTIVITDFGCCLCDKQNGLVIPYRSEDQDKGGNRALMAPEIANAKPGTFSWLNYKKSDLWAVGAIAYEIFNIDNPFYDKTMKLLSKSYKEEDLPELPDTIPFIIRNLVSNMLSRSTNKRLDCDVAATVAQLYLWAPSSWLKENYTLPNSNEIIQWLLCLSSKVLCERDITARNKTNTMSESVSKAQYKGRRSLPEYELIASFLRRVRLHLVRKGLKWIQELHIYN
notes: PINK1 of Pediculus humanus corporis, amino acids 143–575, lacking the N-helix; also called PhPINK1 without the N-helix; the shorter PhPINK1 construct
B2: PhPINK1(D334A) (amino acids 115–575), unphosphorylated (enzyme)
chain: SGLLTKDDELEGICWEIREAVSKGKWNDSESENVEQLQAANLDELDLGEPIAKGCNAVVYSAKLKNVQSNKLAHQLAVKMMFNYDVESNSTAILKAMYRETVPAMSYFFNQNLFNIENISDFKIRLPPHPNIVRMYSVFADRIPDLQCNKQLYPEALPPRINPEGSGRNMSLFLVMKRYDCTLKEYLRDKTPNMRSSILLLSQLLEAVAHMNIHNISHRALKSDNILVDLSEGDAYPTIVITDFGCCLCDKQNGLVIPYRSEDQDKGGNRALMAPEIANAKPGTFSWLNYKKSDLWAVGAIAYEIFNIDNPFYDKTMKLLSKSYKEEDLPELPDTIPFIIRNLVSNMLSRSTNKRLDCDVAATVAQLYLWAPSSWLKENYTLPNSNEIIQWLLCLSSKVLCERDITARNKTNTMSESVSKAQYKGRRSLPEYELIASFLRRVRLHLVRKGLKWIQELHIYN
notes: pOPINK vector, GST tag removed with 3C PreScission protease; also called unphosphorylated PhPINK1(D334A); monomeric PhPINK1(D334A); source: E. coli Rosetta2 (DE3) pLacI, purified (Glutathione Sepharose, 3C cleavage, SEC); not shown: GST, N-terminal, cleaved
B3: PhPINK1(D357A) (amino acids 115–575) (enzyme)
chain: B2 chain with A220D, D243A
notes: Forms a dodecamer (two rings of three dimers); also called oligomeric PhPINK1(D357A); PhPINK1(D357A) dodecamer; source: E. coli Rosetta2 (DE3) pLacI, purified (Glutathione Sepharose, 3C cleavage, Mono Q for EM, SEC); not shown: GST, N-terminal, cleaved
B4: TcPINK1(T172C/D359A) (enzyme, Tribolium castaneum, UniProt D6WMX4 117-570, looked up)
chain: TGILTKEEELEGVCWEIREAISKIKWQYYDIDESRFESNPITLNDLSLGKPIAKGCNGVVYSAKVKDDETDDNKYPFALKMMFNYDIQSNSMEILKAMYRETVPARMYYSNHDLNNWEIELANRRKHLPPHPNIVAIFSVFTDLIQELEGSKDLYPAALPPRLHPEGEGRNMSLFLLMKRYDCNLQSFLSTAPSTRTSLLLLAQLLEGVAHMTAHGIAHRDLKSDNLLLDTSEPESPILVISAFGCCLADKTNGLSLPYTSYEMDKGGNTALMAPEIICQKPGTFSVLNYSKADLWAVGAIAYEIFNCHNPFYGPSRLKNFNYKEGDLPKLPDEVPTVIQALVANLLKRNPNKRLDPEVAANVCQLFLWAPSTWLKPGLKVPTSGEILQWLLSLTTKVLCEGKINNKSFGEKFTRNWRRTYPEYLLISSFLCRAKLANVRNALHWIQENLPELD
notes: PINK1 of Tribolium castaneum with T172C and D359A; also called TcPINK1 with an equivalent T172C mutation; source: E. coli Rosetta2 (DE3) pLacI, purified (Glutathione Sepharose, 3C cleavage, SEC); not shown: GST, N-terminal, cleaved

Legend:
[1] = molecular target: the molecule itself; assay: SEC-MALS; Superdex 200 Increase 10/300 GL; 25 mM Tris (pH 8.5), 150 mM NaCl, 5% (v/v) glycerol, 2 mM TCEP; 100 µl of purified protein at 1 mg ml^−1, 0.5 ml min^−1
[2] = molecular target: T1, Ser202-phosphorylated PhPINK1 (amino acids 115–575), monomeric (Pediculus humanus corporis, UniProt E0W1I1 115-575, phosphoserine at 202); assay: SEC + other: Phos-tag SDS–PAGE; Phos-tag analysis of the oligomer species from the analytical SEC of the mixed proteins; details: both partners purified
T1 construct: PINK1 of Pediculus humanus corporis, amino acids 115–575, wild type, autophosphorylated at Ser202 after dephosphorylation; For the analytical SEC the monomer fractions of the SEC run were pooled; also called phospho-PhPINK1; monomeric phosphorylated PhPINK1; not shown: GST, N-terminal, cleaved
T1 sequence (looked up): B2 chain with A220D

[3] = molecular target: the molecule itself; assay: cross-linking; in vitro disulphide linkage: 1.5 μM PhPINK1 or TcPINK1 with 2 mM H2O2 in 25 mM Tris (pH 7.4), 150 mM NaCl, 22 °C, time course; non-reducing gel, Coomassie

Row | Binder | stoichiometry N [1] | other results
1 | B1 | 2 | –
2 | B2 | – | stoichiometry N [2]: 1
3 | B3 | 2 | –
4 | B4 | – | binding result [3]: binds
